Numbering of substitutions follows the chain as printed. In names and notes the source's numbering stands.
T1: His-tagged lamin A/C 250-400 fragment, wild type (human, UniProt P02545 250-400)
T1 sequence (looked up): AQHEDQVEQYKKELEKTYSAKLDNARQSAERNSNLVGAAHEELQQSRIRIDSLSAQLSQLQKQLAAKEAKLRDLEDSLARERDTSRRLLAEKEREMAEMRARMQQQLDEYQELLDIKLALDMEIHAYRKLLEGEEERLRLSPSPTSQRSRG

T2: His-tagged lamin A/C 250-400 fragment, L362C (human, UniProt P02545 250-400, L362C)
T2 sequence (looked up): T1 sequence (looked up) with L113C

T3: His-tagged lamin A/C 1-300 fragment, Y45C (human), P02545
T3 chain: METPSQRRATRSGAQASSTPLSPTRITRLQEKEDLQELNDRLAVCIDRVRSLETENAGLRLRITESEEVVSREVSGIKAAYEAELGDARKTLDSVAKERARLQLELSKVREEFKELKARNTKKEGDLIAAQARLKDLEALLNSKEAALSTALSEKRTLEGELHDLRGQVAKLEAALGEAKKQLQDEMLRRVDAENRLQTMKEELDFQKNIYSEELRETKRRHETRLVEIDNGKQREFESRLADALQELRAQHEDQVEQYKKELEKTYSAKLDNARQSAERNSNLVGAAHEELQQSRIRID

T4: lamin A/C 250-400 fragment, Y267C, tag-free (human, UniProt P02545 250-400, Y267C)
T4 sequence (looked up): T1 sequence (looked up) with Y18C

T5: lamin A/C 250-400 fragment, K316C, tag-free (human, UniProt P02545 250-400, K316C)
T5 sequence (looked up): T1 sequence (looked up) with K67C

B1: His-tagged lamin A/C 1-300 fragment, wild type (domain or fragment, human, UniProt P02545 1-300, looked up)
chain: T3 chain with C45Y
B2: His-tagged lamin A/C 1-300 fragment, Y45C (domain or fragment, human, UniProt P02545 1-300, looked up)
chain: T3 chain
B3: His-tagged lamin A/C 1-300 fragment, L35V (domain or fragment, human, UniProt P02545 1-300, looked up)
chain: T3 chain with L35V, C45Y
B4: His-tagged lamin A/C 1-300 fragment, I63S (domain or fragment, human, UniProt P02545 1-300, looked up)
chain: T3 chain with C45Y, I63S
B5: His-tagged lamin A/C 1-300 fragment, L59R (domain or fragment, human, UniProt P02545 1-300, looked up)
chain: T3 chain with C45Y, L59R
B6: lamin A/C 1-125 fragment, wild type, prey of Fig. 6B (domain or fragment, human, UniProt P02545 1-125, looked up)
chain: METPSQRRATRSGAQASSTPLSPTRITRLQEKEDLQELNDRLAVYIDRVRSLETENAGLRLRITESEEVVSREVSGIKAAYEAELGDARKTLDSVAKERARLQLELSKVREEFKELKARNTKKEG
B7: lamin A/C 250-400 fragment (C-terminal part of coil 2), wild type, tag-free (domain or fragment, human, UniProt P02545 250-400, looked up)
chain: T1 sequence (looked up)
B8: His-tagged lamin A/C 1-125 fragment, L35V (domain or fragment, human, UniProt P02545 1-125, looked up)
chain: B6 chain with L35V
B9: His-tagged lamin A/C 1-125 fragment, wild type (domain or fragment, human, UniProt P02545 1-125, looked up)
chain: B6 chain
B10: His-tagged lamin A/C 1-125 fragment, L59R (domain or fragment, human, UniProt P02545 1-125, looked up)
chain: B6 chain with L59R
B11: His-tagged lamin A/C 1-125 fragment, I63S (domain or fragment, human, UniProt P02545 1-125, looked up)
chain: B6 chain with I63S
B12: His-tagged lamin A/C 1-125 fragment, Y45C (domain or fragment, human, UniProt P02545 1-125, looked up)
chain: B6 chain with Y45C

Columns and labels:
[1] = biological target: the molecule itself
[2] = biological target: T1, His-tagged lamin A/C 250-400 fragment, …; test: pull-down
[3] = biological target: T2, His-tagged lamin A/C 250-400 fragment, …; test: pull-down
[4] = biological target: B1; test: pull-down
[5] = biological target: B4; test: ITC
[6] = biological target: B5; test: ITC
[7] = biological target: B3; test: ITC
[8] = biological target: T3, His-tagged lamin A/C 1-300 fragment, …; test: ITC; settings: remark: other sources report otherwise
[9] = biological target: B7; test: pull-down
[10] = biological target: T4, lamin A/C 250-400 fragment, Y267C, …; test: pull-down
[11] = biological target: T5, lamin A/C 250-400 fragment, K316C, …; test: pull-down

| binding result [9] | Binder | stoichiometry N [1] | further results |
| --- | --- | --- | --- |
| – | B1 | 2 | – |
| – | B2 | 2 | – |
| – | B3 | 2 | – |
| – | B4 | 2 | – |
| – | B5 | 2 | – |
| – | B6 | – | binding result [2]: binds; binding result [3]: binds |
| – | B7 | – | binding result [4]: binds; fold increase of the eA22 interaction against wild type (from KD) [5]: ~2 fold; fold increase of the eA22 interaction against wild type (from KD) [6]: ~56 fold; fold decrease of the eA22 interaction against wild type (from KD) [7]: ~2 fold; fold decrease of the eA22 interaction against wild type (from KD) [8]: 5 fold |
| binds | B8 | – | – |
| binds | B9 | – | binding result [10]: binds; binding result [11]: binds |
| binds | B10 | – | – |
| binds | B11 | – | – |
| binds | B12 | – | – |
